Experiments:
[1] = target: T1, Syn BVR (Synechocystis sp. PCC 6803, UniProt P72782); test: X-ray crystal structure, soaked crystal, […] Å; assay type: binding; conditions: 10 mM NADP+ soak; no biliverdin; cleft between the two domains
T1 construct: gene bvdR; full length, 328 residues; N-terminal His6 tag (pET15b), E. coli C41(DE3); tag cut with thrombin for crystals

[2] = substrate: C=CC1=C(C)/C(=C/c2[nH]c(/C=C3N=C(/C=C4\NC(=O)C(C)=C4C=C)C(C)=C\3CCC(=O)O)c(CCC(=O)O)c2C)NC1=O; test: steady-state kinetics, A450 bilirubin formation; assay type: biochemical, Rattus norvegicus; conditions: 100 μM NADPH, 100 mM Tris-HCl pH 8.75
Text: steady-state kinetics, A450 bilirubin formation on rat BVR

[3] = substrate: C=CC1=C(C)/C(=C/c2[nH]c(/C=C3N=C(/C=C4\NC(=O)C(C)=C4C=C)C(C)=C\3CCC(=O)O)c(CCC(=O)O)c2C)NC1=O; test: steady-state kinetics, A450 bilirubin formation; assay type: biochemical, Homo sapiens; conditions: 100 μM NADPH, 100 mM Tris-HCl pH 8.75
Text: steady-state kinetics, A450 bilirubin formation on human BVR

[4] = substrate: C=CC1=C(C)/C(=C/c2[nH]c(/C=C3N=C(/C=C4\NC(=O)C(C)=C4C=C)C(C)=C\3CCC(=O)O)c(CCC(=O)O)c2C)NC1=O; test: steady-state kinetics, A450 bilirubin formation; assay type: biochemical, Synechocystis sp. PCC 6803; conditions: 100 μM NADPH, 100 mM citrate pH 5.75
Text: steady-state kinetics, A450 bilirubin formation on Syn BVR

NC(=O)c1ccc[n+]([C@@H]2O[C@H](COP(=O)(O)OP(=O)(O)OC[C@H]3O[C@@H](n4cnc5c(N)ncnc54)[C@H](OP(=O)(O)O)[C@@H]3O)[C@@H](O)[C@H]2O)c1 [NADP^+]
X-ray crystal structure, soaked crystal, 2.7 Å [1]: NADP^+ binds in the cleft between the two domains

B1: rat BVR (Rattus norvegicus) (protein)
chain: MDAEPKRKFGVVVVGVGRAGSVRLRDLKDPRSAAFLNLIGFVSRRELGSLDEVRQISLEDALRSQEIDVAYICSESSSHEDYIRQFLQAGKHVLVEYPMTLSFAAAQELWELAAQKGRVLHEEHVELLMEEFEFLRREVLGKELLKGSLRFTASPLEEERFGFPAFSGISRLTWLVSLFGELSLISATLEERKEDQYMKMTVQLETQNKGLLSWIEEKGPGLKRNRYVNFQFTSGSLEEVPSVGVNKNIFLKDQDIFVQKLLDQVSAEDLAAEKKRIMHCLGLASDIQKLCHQKK
notes: C-terminal His tag (pET21a-rat bvr), E. coli BL21(DE3)
Km [2]: 4.6 ± 1.1 µM
kcat [2]: 69.3 ± 8.5 s⁻¹
kcat/Km [2]: 1.51e+07 M⁻¹ s⁻¹

B2: rat BVR (Rattus norvegicus; R171E) (protein)
chain: MDAEPKRKFGVVVVGVGRAGSVRLRDLKDPRSAAFLNLIGFVSRRELGSLDEVRQISLEDALRSQEIDVAYICSESSSHEDYIRQFLQAGKHVLVEYPMTLSFAAAQELWELAAQKGRVLHEEHVELLMEEFEFLRREVLGKELLKGSLRFTASPLEEERFGFPAFSGISELTWLVSLFGELSLISATLEERKEDQYMKMTVQLETQNKGLLSWIEEKGPGLKRNRYVNFQFTSGSLEEVPSVGVNKNIFLKDQDIFVQKLLDQVSAEDLAAEKKRIMHCLGLASDIQKLCHQKK
notes: as for B1
Km [2]: 45.7 ± 15.4 µM
kcat [2]: 0.7 ± 0.2 s⁻¹
kcat/Km [2]: 20000 M⁻¹ s⁻¹

B3: rat BVR (Rattus norvegicus; R171A) (protein)
chain: MDAEPKRKFGVVVVGVGRAGSVRLRDLKDPRSAAFLNLIGFVSRRELGSLDEVRQISLEDALRSQEIDVAYICSESSSHEDYIRQFLQAGKHVLVEYPMTLSFAAAQELWELAAQKGRVLHEEHVELLMEEFEFLRREVLGKELLKGSLRFTASPLEEERFGFPAFSGISALTWLVSLFGELSLISATLEERKEDQYMKMTVQLETQNKGLLSWIEEKGPGLKRNRYVNFQFTSGSLEEVPSVGVNKNIFLKDQDIFVQKLLDQVSAEDLAAEKKRIMHCLGLASDIQKLCHQKK
notes: as for B1
Km [2]: 24.4 ± 1.5 µM
kcat [2]: 6 ± 0.2 s⁻¹
kcat/Km [2]: 200000 M⁻¹ s⁻¹

B4: rat BVR (Rattus norvegicus; Y97F) (protein)
chain: MDAEPKRKFGVVVVGVGRAGSVRLRDLKDPRSAAFLNLIGFVSRRELGSLDEVRQISLEDALRSQEIDVAYICSESSSHEDYIRQFLQAGKHVLVEFPMTLSFAAAQELWELAAQKGRVLHEEHVELLMEEFEFLRREVLGKELLKGSLRFTASPLEEERFGFPAFSGISRLTWLVSLFGELSLISATLEERKEDQYMKMTVQLETQNKGLLSWIEEKGPGLKRNRYVNFQFTSGSLEEVPSVGVNKNIFLKDQDIFVQKLLDQVSAEDLAAEKKRIMHCLGLASDIQKLCHQKK
notes: as for B1
Km [2]: 11.7 ± 1.0 µM
kcat [2]: 13.6 ± 0.6 s⁻¹
kcat/Km [2]: 1.2e+06 M⁻¹ s⁻¹

B5: human BVR (Homo sapiens) (protein)
chain: MNAEPERKFGVVVVGVGRAGSVRMRDLRNPHPSSAFLNLIGFVSRRELGSIDGVQQISLEDALSSQEVEVAYICSESSSHEDYIRQFLNAGKHVLVEYPMTLSLAAAQELWELAEQKGKVLHEEHVELLMEEFAFLKKEVVGKDLLKGSLLFTAGPLEEERFGFPAFSGISRLTWLVSLFGELSLVSATLEERKEDQYMKMTVCLETEKKSPLSWIEEKGPGLKRNRYLSFHFKSGSLENVPNVGVNKNIFLKDQNIFVQKLLGQFSEKELAAEKKRILHCLGLAEEIQKYCCSRK
notes: C-terminal His tag (pET21a(+)), codon-optimized synthetic gene, E. coli BL21(DE3)
Km [3]: 20.7 ± 10.1 µM
kcat [3]: 94.8 ± 31.4 s⁻¹
kcat/Km [3]: 4.6e+06 M⁻¹ s⁻¹

B6: human BVR (Homo sapiens; Y98F) (protein)
chain: MNAEPERKFGVVVVGVGRAGSVRMRDLRNPHPSSAFLNLIGFVSRRELGSIDGVQQISLEDALSSQEVEVAYICSESSSHEDYIRQFLNAGKHVLVEFPMTLSLAAAQELWELAEQKGKVLHEEHVELLMEEFAFLKKEVVGKDLLKGSLLFTAGPLEEERFGFPAFSGISRLTWLVSLFGELSLVSATLEERKEDQYMKMTVCLETEKKSPLSWIEEKGPGLKRNRYLSFHFKSGSLENVPNVGVNKNIFLKDQNIFVQKLLGQFSEKELAAEKKRILHCLGLAEEIQKYCCSRK
notes: as for B5
Km [3]: 3.8 ± 0.3 µM
kcat [3]: 16.8 ± 0.5 s⁻¹
kcat/Km [3]: 4.4e+06 M⁻¹ s⁻¹

B7: human BVR (Homo sapiens; R172A) (protein)
chain: MNAEPERKFGVVVVGVGRAGSVRMRDLRNPHPSSAFLNLIGFVSRRELGSIDGVQQISLEDALSSQEVEVAYICSESSSHEDYIRQFLNAGKHVLVEYPMTLSLAAAQELWELAEQKGKVLHEEHVELLMEEFAFLKKEVVGKDLLKGSLLFTAGPLEEERFGFPAFSGISALTWLVSLFGELSLVSATLEERKEDQYMKMTVCLETEKKSPLSWIEEKGPGLKRNRYLSFHFKSGSLENVPNVGVNKNIFLKDQNIFVQKLLGQFSEKELAAEKKRILHCLGLAEEIQKYCCSRK
notes: as for B5
Km [3]: 87.7 ± 35.7 µM
kcat [3]: 17.9 ± 6.3 s⁻¹
kcat/Km [3]: 200000 M⁻¹ s⁻¹

B8: Syn BVR (Synechocystis sp. PCC 6803 substr. Kazusa; R246A) (protein)
chain: MSENFAVATPVRVGIVGTGYAAQRRAEVFRGDRRSQLVSFWGNSEANTAKFADTFGVRPQQSWQALINDPEIDLVLIATINQLHGAIAEAALQAGKHVVLEYPLALTYAMGKKLQQLAREKGKLLHVEHIELLGGVHQAIRQNLGKIGEVFYARYSTIMGQNPAPQRWTYHHQQFGFPLVAALSRISRFTDLFGTVQQVDAQCRFWDQPNPEYFRACLATAYLQFNNGLKAEVIYGKGEVFHQNEAIFTLHGDRGTLIFVGETGRLIQGQTETEITVGSRRGLFRQDTEAVLDYLTTGKPLYVDLEASLYALEVADLCAQACGYKVEN
notes: full length, 328 residues; N-terminal His6 tag (pET15b), E. coli C41(DE3); tag cut with thrombin for crystals
Km [4]: 5.1 ± 0.8 µM
kcat [4]: 11 ± 0.6 s⁻¹
kcat/Km [4]: 2.2e+06 M⁻¹ s⁻¹

B9: Syn BVR (Synechocystis sp. PCC 6803 substr. Kazusa; R185A) (protein)
chain: MSENFAVATPVRVGIVGTGYAAQRRAEVFRGDRRSQLVSFWGNSEANTAKFADTFGVRPQQSWQALINDPEIDLVLIATINQLHGAIAEAALQAGKHVVLEYPLALTYAMGKKLQQLAREKGKLLHVEHIELLGGVHQAIRQNLGKIGEVFYARYSTIMGQNPAPQRWTYHHQQFGFPLVAALSAISRFTDLFGTVQQVDAQCRFWDQPNPEYFRACLATAYLQFNNGLKAEVIYGKGEVFHQNERIFTLHGDRGTLIFVGETGRLIQGQTETEITVGSRRGLFRQDTEAVLDYLTTGKPLYVDLEASLYALEVADLCAQACGYKVEN
notes: as for B8
Km [4]: 6.9 ± 0.6 µM
kcat [4]: 0.7 ± 0.02 s⁻¹
kcat/Km [4]: 100000 M⁻¹ s⁻¹

B10: Syn BVR (Synechocystis sp. PCC 6803 substr. Kazusa) (protein)
chain: MSENFAVATPVRVGIVGTGYAAQRRAEVFRGDRRSQLVSFWGNSEANTAKFADTFGVRPQQSWQALINDPEIDLVLIATINQLHGAIAEAALQAGKHVVLEYPLALTYAMGKKLQQLAREKGKLLHVEHIELLGGVHQAIRQNLGKIGEVFYARYSTIMGQNPAPQRWTYHHQQFGFPLVAALSRISRFTDLFGTVQQVDAQCRFWDQPNPEYFRACLATAYLQFNNGLKAEVIYGKGEVFHQNERIFTLHGDRGTLIFVGETGRLIQGQTETEITVGSRRGLFRQDTEAVLDYLTTGKPLYVDLEASLYALEVADLCAQACGYKVEN
notes: as for B8
Km [4]: 1.8 ± 0.3 µM
kcat [4]: 7.1 ± 0.2 s⁻¹
kcat/Km [4]: 3.9e+06 M⁻¹ s⁻¹

B11: Syn BVR (Synechocystis sp. PCC 6803 substr. Kazusa; R185K) (protein)
chain: MSENFAVATPVRVGIVGTGYAAQRRAEVFRGDRRSQLVSFWGNSEANTAKFADTFGVRPQQSWQALINDPEIDLVLIATINQLHGAIAEAALQAGKHVVLEYPLALTYAMGKKLQQLAREKGKLLHVEHIELLGGVHQAIRQNLGKIGEVFYARYSTIMGQNPAPQRWTYHHQQFGFPLVAALSKISRFTDLFGTVQQVDAQCRFWDQPNPEYFRACLATAYLQFNNGLKAEVIYGKGEVFHQNERIFTLHGDRGTLIFVGETGRLIQGQTETEITVGSRRGLFRQDTEAVLDYLTTGKPLYVDLEASLYALEVADLCAQACGYKVEN
notes: as for B8
Km [4]: 12.6 ± 1.5 µM
kcat [4]: 0.9 ± 0.05 s⁻¹
kcat/Km [4]: 70000 M⁻¹ s⁻¹

B12: Syn BVR (Synechocystis sp. PCC 6803 substr. Kazusa; T169A) (protein)
chain: MSENFAVATPVRVGIVGTGYAAQRRAEVFRGDRRSQLVSFWGNSEANTAKFADTFGVRPQQSWQALINDPEIDLVLIATINQLHGAIAEAALQAGKHVVLEYPLALTYAMGKKLQQLAREKGKLLHVEHIELLGGVHQAIRQNLGKIGEVFYARYSTIMGQNPAPQRWAYHHQQFGFPLVAALSRISRFTDLFGTVQQVDAQCRFWDQPNPEYFRACLATAYLQFNNGLKAEVIYGKGEVFHQNERIFTLHGDRGTLIFVGETGRLIQGQTETEITVGSRRGLFRQDTEAVLDYLTTGKPLYVDLEASLYALEVADLCAQACGYKVEN
notes: as for B8
Km [4]: 3.4 ± 0.5 µM
kcat [4]: 13.1 ± 0.5 s⁻¹
kcat/Km [4]: 3.9e+06 M⁻¹ s⁻¹

B13: Syn BVR (Synechocystis sp. PCC 6803 substr. Kazusa; Y102F) (protein)
chain: MSENFAVATPVRVGIVGTGYAAQRRAEVFRGDRRSQLVSFWGNSEANTAKFADTFGVRPQQSWQALINDPEIDLVLIATINQLHGAIAEAALQAGKHVVLEFPLALTYAMGKKLQQLAREKGKLLHVEHIELLGGVHQAIRQNLGKIGEVFYARYSTIMGQNPAPQRWTYHHQQFGFPLVAALSRISRFTDLFGTVQQVDAQCRFWDQPNPEYFRACLATAYLQFNNGLKAEVIYGKGEVFHQNERIFTLHGDRGTLIFVGETGRLIQGQTETEITVGSRRGLFRQDTEAVLDYLTTGKPLYVDLEASLYALEVADLCAQACGYKVEN
notes: as for B8
Km [4]: 4.0 ± 0.3 µM
kcat [4]: 2.7 ± 0.07 s⁻¹
kcat/Km [4]: 700000 M⁻¹ s⁻¹

Source: paper PMC5309722, “A substrate-bound structure of cyanobacterial biliverdin reductase identifies stacked substrates as critical for activity” (Nature Communications, 2017)
